# Test: soluble on expression in E. coli; label from the status in PepcDB or PDB records
row,Sequence,soluble on expression in E. coli
1,MGSDKIHHHHHHMRFGYFDDVNREYVITTPQTPYPWINYLGTEDFFSIISHMAGGYCFYKDARLRRITRFRYNNVPTDAGGRYFYIREENGDFWTPTWMPVRKDLSFFEARHGLGYTKITGERNGLRATITYFVPRHFTGEVHYLVLENKAEKPRKIKLFSFIEFCLWNALDDMTNFQRNYSTGEVEIEGSVIYHKTEYRERRNHYAFYSVNQPIDGFDTDRESFIGLYSGFEAPQAVVEGKPRNSVASGWAPIASHYLEIELAPSEKKELIFILGYVENPEEEKWEKPGVINKKRAKEMIEKFKTGEDVEHALKELREYWDDLLGRIQVETHDEKLNRMVNIWNQYQCMVTFNISRSASYFESGISRGIGFRDSNQDILGFVHMIPEKARQRILDLASIQFEDGSTYHQFQPLTKKGNNEIGGGFNDDPLWLILSTSAYIKETGDWSILGEEVPFDNDPNKKASLFEHLKRSFYFTVNNLGPHGLPLIGRADWNDCLNLNCFSKNPDESFQTTVNALDGRVAESVFIAGLFVLAGKEFVEICKRRGLEEEAREAEKHVNKMIETTLKYGWDGEWFLRAYDAFGRKVGSKECEEGKIFIEPQGMCVMAGIGVDNGYAEKALDSVKKYLDTPYGLVLQQPAYSRYYIELGEISSYPPGYKENAGIFCHNNPWVAIAETVIGRGDRAFEIYRKITPAYLEDISEIHRTEPYVYAQMVAGKDAPRHGEAKNSWLTGTAAWSFVAITQHILGIRPTYDSLVVDPCIPKEWEGFRITRKFRGSIYDITVKNPSHVSKGVKEIIVDGKKIEGQVLPVFEDGKVHRVEVVMG,not soluble
2,KKVYLIHGWGANRHAFDDLMPRLPATWPVSAVDLPGHGDAPFAQPFDIEAAADGIAAQIDTSADILGWSLGGLVALYLAARHPDKVRSLCLTASFARLTAAEDYPEGLAAPALGKMVGAFRTDYAKHIKQFLQLQLLHTPDAAEIIGRILPDLARCGTPQALQEALDAAERADARHLLDKIDVPVLLVFGGKDAITPLRMGEYLHRHLKGSRLVVMEKAAHAPFLSHAEAFAALCRDFVEG,not soluble
3,DKPVLKDSMRLFEQLGRVKSRSMFGGFGIFVDETMFALVVNDTLHIRADDATIEKYKQQGYEPYVYKKRGFPVVTKYYALPEDCWSHPDSILNEVRAALEVAKAERETQAQAK,not soluble
4,MGSDKIHHHHHHMHIVDVTMFYAPASGGVRTYLQAKREILSQVPGLRTSLLVPGAERDSLGNHHTLPALRLPLGQGYRFPLRARLWRDALGALAPDIIEAGDPYVTAWAALDASQRLGVPVVGFYHSDLPRLMGDRFGRQVGRRLERYVVNLYRRFDSVLAPCQAMADRLRDWGIDQVRVQPLGVDLQRFHPSCKDPALREELGLAPETRLLVFIGRNSREKNIDILLATMKRLGNGYHLLLIGPGMPRQVPANVTSFDRCCGIYEVARVLASSDAMLHAGTRETFGLIAQEAMASGIPVVGAKAGALKENVPLGAGILCRPLDPEAMADACQSLFRNDVVASGRYARRYVELHFSWESAMKNLLEHYRQLCASSELHVIPQKA,not soluble
5,MQAKVHVKKGDTVLVASGKYKGRVGKVKAVLPRKMAVIVEGVNLVKKAVRPSPKHPQGGFVEQEAPLHASKVRPICPACGKPTRVRKKFLEDGRKIRACAKCGGSLDVEELEHHHHHH,not soluble
6,GPGSMDCWNTRRDSKEFQHEAVEMDSLQANCGAPNEQAFHDTLVSAAYQLRARQRDTNVSISKAEMEGLVVLTRELENFKQMMKRSEFTVEGTWRIVEDGGMVERFGQQLYAELLTRNPRLRVHFHGVDIEEQSKSLLRMVGTAVHFYQKPQLTVDMFTKAGARHRGYGVNAEVFVEMRNAFMRVFSEFVGTDVFEAVEEEWRKFWKYVLDLLVHGSESAEGERYGKMYEEKMLKTIQADFKLIMERQNKCDLRGQFVSVMYSKAIEMHEELSKFEALKDLRASARVLQAYIDIINNIHDKKLLDEYMRELGGRHTAYNVTVENLQAFTEPFLFTCRHFFEEEWNIAAESRFLWLFEYMIDGISAGMVSDINSIVNLRAPSNSVTFGLIFTDIEASTRLWSKDSKSMSLAVKSHHAMIRRLIADYGAYEVKTVGDSFIIATKDVLVAVKLSLAIQLELMRMAPIAPGFAMVDSTEGHGDPQAWDDRTLRVRIGVEHCTDATATYDTIHRRYDYYGASVNRCARIEAAACGGQILLCRESFEYLKSMPEFHNDPCPHFLRHVEIATPPPKVDSRGLDHFVVVSDVGLASFKGIAEPVHLLSLVPRCLAGRQFTEKFTKVSE,not soluble
7,MKKEKDLSVAVLIDGDNASSEKMEDVMRFVSRYGAAVVRRIYGDWTKKSLSGWKDAARDYSFRMVQASSFVPGKNTTDIALVMDAMDILHEGRVGCFCLVASDGDYTLLAQRIRESGLTVLGYGEGKTPAALVRSCTEFLLADRKEEKPFQENTPEFFIQRDMEYFDKAFEQAADGKAEVSLSLIGGVLKKLMPKFKVKRYGCRTLGKLYERLEKYELVKTGKGVAGLVRIKS,not soluble
8,MGSDKIHHHHHHMFSIGKHSDFTPSCVSRMLGDLHFVNQGTAMKFSRYFFSLLTTLPLLACTQVEAPVPEALSQSTGHTAGAAQPQESVIGGSLPIGDSSRTSLDWQGSYEGVVPCASCEGIKTRLTLNNDGTYLLQSQYLGKEQDGKEPKVFEEQGKFSWNASGGAIQLENGAWYQVGENQLFMLDREGKRITGVLAGHYRLLKKQSALLPRF,not soluble
9,MAQFIDRRLNGKNKSAVNRQRFLKRHKEQIKESVADAVNRRSITNTETGEDVSIPHKDINEPIFHQGKGGVRERVHPGNDQFITGDKIERPKGGGQGSGSGEGNASPDGEGQDEFVFQISKDEYLDILFEDLELPNLEKNQIAKITEWKTHRAGFQTAGIPSNISVIRSLQQSLARRTAMTAGKKRLLKELEDELTRIKNIEPAQQLEENRLKKEIEELRKKIENVPFIDTFDLRFKNYEKRPVPSSQAVMFCLMDVSGSMDQATKDIAKRFYVLLYLFLTRTYENVDVVFIRHHTQAKEVDEHEFFYSQETGGTIVSSALKLMDEIVKERYPVGQWNIYAAQASDGDNWADDSPRCRDLLVNKLLPNCQYYSYIEITRRSHQTLWHEYEKLTDEFPNFAMKNIRSVEDIFPVFRELFQKETALEHHHHHH,soluble
10,MLDVKSQDISIPEAVVVLCTAPDEATAQDLAAKVLAEKLAACATLLPGATSLYYWEGKLEQEYEVQMILKTTVSHQQALIDCLKSHHPYQTPELLVLPVTHGDTDYLSWLNASLR,not soluble
11,MSCFVTVGSTLFEDLINQVLCEASLENLKKIGVKKIRLQIGKGNFNQDVIDRVFGETSGDEGSVKCDGLDIDYYRYKPSLSEDMAEALIVIGHGGAGTCLEVLALHLPFITVTNDKLMDNHQAELAVQLSDEGYLLQCTPSTLPETILKENLFSLRQFAAPSKKFVAEHIKQLVGIKNH,not soluble
12,MMAKLVVCIIDGMADPPPPAGGVTPLAAAHTPHCDTLARHSVAGLCHVIQPEAVPGSEAGLSALLCCEAAASIARGPVEALAQGDPVAPHETVWRLNLVSLGPRGNYYNPAPLLDAATETAARKMLDRALGTQGYSLLGGKGFRHLCAGTEPPVLRDGPQDVCGMTPDTGQADLNSYCPRLARAMTEANVLFRRSRMDLAVWPWGAGTMPDLPGFAETTGQTGALAGGVPLARGLALALGMTAPSIAGATGGIDTDLGAKTRAAIALAAGHDVVYLHVEAPDLHAHALDRVAKRRAIERIDAEVVGPLHMALPDATLLITCDHATDCATGRHMAIPVPFILHKPDGPQDGIATFSEAASARTGIRIDSAATLVRLALADLEHHHHHH,soluble
13,SRVSVTDYKRLLDSGAFHLLLDVRPQVEVDICRLPHALHIPLKHLERRDAESLKLLKEAIWEEKQGTQEGAAVPIYVICKLGNDSQKAVKILQSLSAAQELDPLTVRDVVGGLMAWAAKIDGTFPQY,soluble
14,MSGIWGNNLKVSIFGESHGNAIGINIDGLPSGIELDLDKIDKEMKRRAPGKNSISTSRNESDIPEILSGYFNGRTTGTPLCAIIRNSDTRSKDYGELKNLMRPGHADFTGNVRYSGFNDYRGGGHFSGRITAPLVFCGAICKQILSQKGIEIGAHIKKIKNIEDMSFDYVNISKQQLSNLQTLELPLLDLSKEEAMKNTIIDAKNQGDSVGGIIECAVVGINVGLGNPFFDSVESTLSHLLFSVPAVKGVEFGLGFELADMYGSQSNDEMYYEGNQVKSKTNNNGGIIGGITTGMPIIFKVAIKPTPSISRQQNTVNIKDKKDDILYIKGRHDPCIVQRAIPVIEAVTAIGIFDLMKGR,not soluble
15,MGHHHHHHSHMISSNIREARTVILPRLMLEITSNGTLTVASHTPIFQKLSLLDLPSLTAHLKTKLSGSMFKGFLFATLCETEDHVTTLDMHPHVFEKRLVLYNPRNTCNKELCALISMVENLMDCDPKLPLSIYMRGKRLFQKNPGKDSCFLFKGLSTLISTHFAVYHPNFTVNDELLLPPLLAYKMHSTIEGIDEVSKGLLKAIYLDSYRMDNNIDDFQNPAGTFTLLCLPTIFTKHLTVPNVLILIKRAGLMYEAIDNIIL,not soluble
16,MTLKGRIHSFESFGTLDGPGIRFVVFMQGCPLRCIYCHNRDTWDVNAGSEYTPRQVIDEMMKYIDYIKVSGGGITVTGGEPVLQADFVAEVFRLAKEQGVHTALDTNGFADIEKVERLIKYTDLVLLDIKHAREDKHKIITGVSNEKIKRFALYLSDQGVPIWIRYVLVPGYTDDEDDLKMAADFIKKLKTVEKIEVLPYHNMGAYKWEKLGQKYMLEGVKGPSAQEVEKAKRILSGK,soluble
17,MGTSFRQYFKIVPALTEELKREAYRVRHSVYCEDLQFESSRSDGFEIDEYDAHSLHLLIRSINNDTFIGCTRIIRPSSNSNDRRLPFEKTCAQTLDRSIIDPSRLPADKIGEVSRLAVIAAFRRRKGEKNHPINISEEDFSTGPMMRFPYIPLSLYIGTIELARIHDIRVLFMLTEERLASHFSRLGAQLEPIGAPVEHRGLRFPSMVEINSIISNMRPIFRPLYQAIAEDIKAELEKKNH,not soluble
18,MGSDKIHHHHHHMKEIDELTIKEYGVDSRILMERAGISVVLAMEEELGNLSDYRFLVLCGGGNNGGDGFVVARNLLGVVKDVLVVFLGKKKTPDCEYNYGLYKKFGGKVVEQFEPSILNEFDVVVDAIFGTGLRGEITGEYAEIINLVNKSGKVVVSVDVPSGIDSNTGKVLRTAVKADLTVTFGVPKIGHILFPGRDLTGKLKVANIGHPVHLINSINRYVITREMVRSLLPERPRDSHKGTYGKVLIIAGSRLYSGAPVLSGMGSLKVGTGLVKLAVPFPQNLIATSRFPELISVPIDTEKGFFSLQNLQECLELSKDVDVVAIGPGLGNNEHVREFVNEFLKTLEKPAVIDADAINVLDTSVLKERKSPAVLTPHPGEMARLVKKTVGDVKYNYELAEEFAKENDCVLVLKSATTIVTDGEKTLFNITGNTGLSKGGSGDVLTGMIAGFIAQGLSPLEASTVSVYLHGFAAELFEQDERGLTASELLRLIPEAIRRLKE,soluble
19,MADNPTNLRNADFRKLLTSARSDRPAVSAFAKPADPKTGDDKPASFKHKHLKPAKFKKPQAAAHGKAKKEKTEADEDEAALKNILKNYRDRAAERRKQGDEKEDPSKLTAAYRAVPGDARSAQDQADLRKQAILESKYLGGDLEHTHLVKGLDYSLLNKVRSEIDKSDDDDDDDIDTAFDEKVTSSSSSSKPSEASLLAQELAQSHSENRMVRSLHRVLFKNEVPLHNQLFAKGRMAYVVELEDEETDIPTTLLRSLHDLPRAESAQSIQANNLIILKLSHVLSHLRAEPKKKKKEEFRVQLGSRDAPGAAAAAPGAKGDSIYDDLDDYVPSRKSRDSRDAGRRGSRRDRSRDRSRDRDRDRDRDNRDRYFEKSANSRREEEQNRREQQRERERAEQERRREREKEREQEKAKEREKKRKELEESSGYDECYPGGLVEMGGAWDSDEEADYSKMDAGPKKNQAVNRWDFDTEEEYASYMEGREALPKAAYQYGVKNGEGGRKNKKQSAVSDAKRLDRELNEINKIMDKRKAGGDGAGGGGDYKKPKY,not soluble

# From the DeepSol protein solubility set
